Substrate in the data set: Nc1ncnc2c1ncn2[C@@H]1O[C@H](COP(=O)(O)OP(=O)(O)OP(=O)(O)O)[C@@H](O)[C@H]1O
Nature of the data set: PASK kinase activity (phosphorylation of AMARA peptide), ATP kinetics. The settings on record: other: HTS kinase assay, AMARA peptide substrate, Tris-HCl pH 7.5, 10 mM MgCl2, room temperature. In kind it is biochemical, human. The method, then: Biochemical properties of the Pask enzyme. A recombinant baculovirus was engineered to overexpress human PASK enzyme in cultured insect cells. The enzyme was expressed as a fusion with a His6 tag at its amino terminus such that the recombinant polypeptide could be purified by Ni-affinity chromatography. Routine enzyme preparations were harvested from 0.8 liter of cultured Sf-9 cells. Cells were lysed by dounce homogenization in 50 mM Tris-HCl, pH 8.0, 100 mM NaCl, 0.04% β-mercaptoethanol (“lysis buffer”) and spun at 100,000×G for one hour to remove insoluble debris. Soluble material (˜50 ml) was then applied to a 3 ml bed volume of Ni-affinity resin. Following application and 50× column volume wash, bound material was eluted with storage buffer (50 mM HEPES, pH 7.4, 100 mM NaCl, 1 mM DTT, 1 mM EDTA) supplemented with 250 mM imidazole. Eluted material was sequentially subjected to Mono-Q, anion-exchange chromatography, and eluted with increasing NaCl concentration. Fractions were evaluated by SDS-PAGE to identify PASK enriched fractions, pooled and dialyzed against storage buffer supplemented with 10% glycerol. Typical enzyme preparations yield 0.5 mg of intact PASK enzyme judged to be greater than 95% pure by visual inspection of Coomassie-stained SDS-PAGE gels.

The values below come from patent US7132278B2, “PAS kinase” (Board of Regents, The University of Texas System, priority 2001, dated 2006).

B1: human PASK (PAS-kinase), wild type, SEQ ID NO:2 (Homo sapiens) (protein)
chain: MEDGGLTAFEEDQRCLSQSLPLPVSAEGPAAQTTAEPSRSFSSAHRHLSRRNGLSRLCQSRTALSEDRWSSYCLSSLAAQNICTSKLHCPAAPEHTDPSEPRGSVSCCSLLRGLSSGWSSPLLPAPVCNPNKAIFTVDAKTTEILVANDKACGLLGYSSQDLIGQKLTQFFLRSDSDVVEALSEEHMEADGHAAVVFGTVVDIISRSGEKIPVSVWMKRMRQERRLCCVVVLEPVERVSTWVAFQSDGTVTSCDSLFAHLHGYVSGEDVAGQHITDLIPSVQLPPSGQHIPKNLKIQRSVGRARDGTTFPLSLKLKSQPSSEEATTGEAAPVSGYRASVWVFCTISGLITLLPDGTIHGINHSFALTLFGYGKTELLGKNITFLIPGFYSYMDLAYNSSLQLPDLASCLDVGNESGCGERTLDPWQGQDPAEGGQDPRINVVLAGGHVVPRDEIRKLMESQDIFTGTQTELIAGGQLLSCLSPQPAPGVDNVPEGSLPVHGEQALPKDQQITALGREEPVAIESPGQDLLGESRSEPVDVKPFASCEDSEAPVPAEDGGSDAGMCGLCQKAQLERMGVSGPSGSDLWAGAAVAKPQAKGQLAGGSLLMHCPCYGSEWGLWWRSQDLAPSPSGMAGLSFGTPTLDEPWLGVENDREELQTCLIKEQLSQLSLAGALDVPHAELVPTECQAVTAPVSSCDLGGRDLCGGCTGSSSACYALATDLPGGLEAVEAQEVDVNSFSWNLKELFFSDQTDQTSSNCSCATSELRETPSSLAVGSDPDVGSLQEQGSCVLDDRELLLLTGTCVDLGQGRRFRESCVGHDPTEPLEVCLVSSEHYAASDRESPGHVPSTLDAGPEDTCPSAEEPRLNVQVTSTPVIVMRGAAGLQREIQEGAYSGSCHHRDGLRLSIQFEVRRVELQGPTPLFCCWLVKDLLHSQRDSAARTRLFLASLPGSTHSTAAELTGPSLVEVLRARPWFEEPPKAVELEGLAACEGEYSQKYSTMSPLGSGAFGFVWTAVDKEKNKEVVVKFIKKEKVLEDCWIEDPKLGKVTLEIAILSRVEHANIIKVLDIFENQGFFQLVMEKHGSGLDLFAFIDRHPRLDEPLASYIFRQLVSAVGYLRLKDIIHRDIKDENIVIAEDFTIKLIDFGSAAYLERGKLFYTFCGTIEYCAPEVLMGNPYRGPELEMWSLGVTLYTLVFEENPFCELEETVEAAIHPPYLVSKELMSLVSGLLQPVPERRTTLEKLVTDPWVTQPVNLADYTWEEVCRVNKPESGVLSAASLEMGNRSLSDVAQAQELCGGPVPGEAPNGQGCLHPGDPRLLTS
As to B1, the Km was 2500 µM.

For orientation: Km means the concentration of substrate that gives half-maximal velocity.
